Test: yeast display, Sf9 membrane polyspecificity reagent, FACS + sequencing; frameworks hold sequencing errors
Outline: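 Nanobodies from a synthetic yeast display library (Saccharomyces cerevisiae BJ5465), induced 36–48 hours with galactose, were stained 1 hour at 4 °C with 10% biotinylated, detergent-solubilized Sf9 membrane reagent, enriched on streptavidin microbeads, then FACS-sorted. Anti-HA (expression) and streptavidin (reagent binding) fluorescence set low and high (top ~1%) gates. Polyreactivity labels come from the gate of origin. Genes were colony-PCR amplified, MiSeq 2 × 250 sequenced and filtered by CDR length.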

Sequence | polyreactivity (PSR sort gate)
QVQLVESGGGLVQAGGSLRLSCAASGFTLWLNAMGWYRQAPGKERELVAAITTSDDGTYYADSVKGRFTISRDNAKNSVYLQMNSLKPEDTAVYYCAADYYSVLYDYWGQGTQVTVSS | low polyreactivity
QVQLVESGGGLVQAGGSLRLSCAASGSIFRVYAMGWYRQAPGKERELVAAISSIVGSTYYADSVKGRFTISRDNAKNTVYLQMNSLKPADTAVYYCNKDGTWPRTGSEYDYWGQGTQVTVSS | low polyreactivity
QVQLVESAGGLVQAGGTLRLSCAASGSIFRTHTMGWYRQAPGKERELVAAITAIGDSTYYADAVKGRFTISRDNAKNTVNRQLHSLKPEDTAVYYCAAEKVSWGYHFYSSYDYWGQGTQVTVSS | low polyreactivity
QVQLVESGGGLVQAGGSLRLTCAASGSIFYPYAMGWYRQAPGKERELVAAISWSGGSTYYADSVKGRFTISRDNAKNTVYLQMKSLKPEDTAVYYCNAVGHWFYSSGRYYGDDYWGQGTQVTVSS | high polyreactivity
QVQLVESCGGLVQAGGSLRLSCAASGFIFRSYAMGWYRKAHGKERELVAAISRSGGSTYYADSVKGRFTISRDNAKNTVYLQMNSLKPEDTAVYYCATDGGRSTARGFGHWGQGTQVTVSS | high polyreactivity
QVQLVESGGGLVQAGGSLRLSCAASGSIFPVNAMGWYRQAPGKERELVAAISSDGTTYYADSVKGRFTISRDNAKNTVYLQMNSLKPEDTAVYYCAKDRRYYKAYDYWGQGTLVTVSS | low polyreactivity
QVQLVESGGGLVQAGGSLRLSCAASGRIFSNNAMGWYRQAPGKERELVAAIDSSGDSTNYADSVKGRFTISRDNAKNTVYLQMNSLKPEDTAVYYCNARQSGRRVWQYLYGYWGQGTQVTVSS | high polyreactivity
QVQLVESGGGLVQAGGSLRLSCAASGSIFGFYMGWYRQAPGKERELVAAISGSGGNTYYADSVKGRFTISRDNAKNTVYLQMNSLKPEDTAVYYCAVRYPGSRYLISKNGYWGQGTQVTVSS | high polyreactivity
QVQLVESGGGLVQAGGSLRLSCDASGSIIGFYAMVWYRQAPGKERELVASISSSGDSTYYADSVKGRFTFSRDIAKNTVYLQMNSLIPEDTAVYYCAAVVYDIYGYEFDYWGQGTQLTVSS | low polyreactivity
QVQLVESGGGLVKAGGSLRLSCAASGFNFGGNVMGWYRQAPGKERELVAAITYSGGSTYYADSVKGRFTISRDNAKNTVYLQMNSLKPEDTAVYYCAAVQRKYYIDPAYDYWGQGTQVTVSS | low polyreactivity
QDQLVESGGGLVQAGGSLRLSCAASGSIFPHNAKGSYRQAPGKERELVASITSRGGITYYADSVKGRFTISRDNAKNTVYLQMNSLKPEDTAVYYCAADTYTDGYDYWGQGTQVTVSS | low polyreactivity
QVQLVESGGGLVQAGGSLRLSCAASGSTFYRYDMGWYRQAPGKERELVAAITSVGSTKYADSVKGRFTISRDNAKNTVYLQMNSLKPEDNAVYYCNVDYIDWGQWYTNYPLSGYDYWGQGTQVTVSS | low polyreactivity
QVQLVESGGGLVQAGGSLRLSCAASGSTSSVNAMGWYRQAPGKEREFVATISFGGGRRYYADSVKGRFTISRDNAKNTVYLQMNSLKPEDTAVYYCAAVGSRWFSQTWRDYWGQGTQVTVSS | high polyreactivity
QVQLVESGGGLVQAGGSLRLSCAASGRIFRVNAMGWYRQAPGKERELVAAINFSGTSTYYADSVKGRFTISRDNAKNTVYLQMNSLKPEDTAVYYCNALTTSNSGRFYYWGQGTQVTVSS | low polyreactivity
QVQLEESGGGLVQAGGRLRLSCAASGIIFEYYAMGGYRQAPGTERELVAAIFSGGSTYYADSVKGRFTISGDNAKNNVYLQMNSLKPEDTAVYYCAADYFAWGQGTQVTVSS | high polyreactivity
QVQLVESGGGLVQAGGSLRLSCAASGGTFSVNAMGWYRQAHGTERELVAAISWRGGSTYNADSVKGRFTISRDTAKNTFYLQMNSLKPEDTAVYYCAKYRYYYYWFNYWGQGTQVNVSS | high polyreactivity
QVQLVESGGGLVQAGGSLRLSCAASGRTFWMNAMGWYRQATGKERELVATISSSSGSTTYADSVKGRFTISRDNAKNTVYLQMNSLKPEDTAVYYCNVDDPFYSGVVEFDYWGQGTQVTVSS | low polyreactivity
QVQLVESGGGLVQAGGSLRLSCAASGLTFISYDMGWYRQAPGKERELVAAISSGGVLPNYADSVKGRFTISRDNAKNTVYLQMNSLKPEDTAVYYCNADTPTWPLDYWGQGTQVTVSS | low polyreactivity
QVQLVESGGSLVQAGGSLRLSCAASGSTFDYYAMGWYRQAPGKARELHAAIDWSGDSTYYADSVKGRFTISRDNAKNTVYLQMNSLKREDSAVYYCPADLDSRGTYGRYEYWGQGTQVTVSS | low polyreactivity
QVQLVESGGGLVQAGGSLRLSCAASGNIFGFYTMGWYRQAPGKERELVAAIRSRGGSTNYADSVKGRFTISRDNAKNTVYIQMNSLKPEDTAVYYCNKDGTWLARAVTYADFDYWGQGTQVTVSS | low polyreactivity
QVQLVESGGGLVQAGGSLRLSCAASGSTFNAYAMGWYRQAPGKERELVADISFSGGTYYADSVKGRFTISRDNAKNTVYLQMNSLKPEDTAVYYCSAESRWRSSAGGYYYWGQGTQVTVSS | low polyreactivity

— the nanobody polyreactivity screen of Harvey et al. (2022)
